Source: patent publication US20240034816A1
pKd: −log10 of the molar value.

Columns and labels:
[1] = molecular target: human CD16a (human FcγRIIIA), V isoform (human) (UniProt P08637); experiment: SPR (Biacore T200), His-tagged huCD16a captured by anti-His antibody on CM5 chip, antibody injected at 5.8-3000 nmol/L, steady state fit
[2] = molecular target: human neonatal Fc receptor (FcRn) (human) (UniProt P55899); experiment: SPR, binding to huFcRn at pH 6.0
Sequence of human neonatal Fc receptor (FcRn) (human) (P55899 24-297 limits assumed, chain 1 of 2): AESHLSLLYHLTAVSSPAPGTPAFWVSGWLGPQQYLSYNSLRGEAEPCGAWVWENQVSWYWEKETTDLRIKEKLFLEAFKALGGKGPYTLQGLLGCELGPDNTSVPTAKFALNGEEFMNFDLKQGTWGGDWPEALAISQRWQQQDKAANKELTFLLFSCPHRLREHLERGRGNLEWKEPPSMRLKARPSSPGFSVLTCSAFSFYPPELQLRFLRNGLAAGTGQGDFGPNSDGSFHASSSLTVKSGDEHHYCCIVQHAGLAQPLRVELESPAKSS
Sequence of human neonatal Fc receptor (FcRn) (human) (chain, as listed by the source limits assumed, chain 2 of 2): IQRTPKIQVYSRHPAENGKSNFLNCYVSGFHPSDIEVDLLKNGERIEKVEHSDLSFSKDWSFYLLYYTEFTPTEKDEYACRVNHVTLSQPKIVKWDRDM

Sequence of human CD16a (human FcγRIIIA), V isoform (human) (P08637 17-208 F176V limits assumed): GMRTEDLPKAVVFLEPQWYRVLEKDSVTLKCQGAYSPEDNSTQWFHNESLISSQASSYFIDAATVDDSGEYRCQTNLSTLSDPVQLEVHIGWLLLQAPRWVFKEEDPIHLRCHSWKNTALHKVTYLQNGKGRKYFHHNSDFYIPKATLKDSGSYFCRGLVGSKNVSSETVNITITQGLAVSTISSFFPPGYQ

Adalimumab huIgG1 ctrl (antibody)
pKd [1]: 6.33 | pKd [2]: 6.81
